# Laboratory results from US20230035403A1 (Janssen / Centocor, published 2023).
# B1: P59 9-mer NMVENGCYL (peptide)
# peptide: NMVENGCYL
# notes: 9-mer fragment of neoantigen P59; synthetic peptide
# B2: P16 9-mer STRRAVRRM (peptide)
# peptide: STRRAVRRM
# notes: 9-mer fragment of neoantigen P16 (MSMB-NCOA4 fusion); synthetic peptide
# B3: P50 9-mer IQYSCMGLM (peptide)
# peptide: IQYSCMGLM
# notes: 9-mer fragment of neoantigen P50; synthetic peptide
# B4: P27 9-mer FPVGAEGTF (peptide)
# peptide: FPVGAEGTF
# notes: 9-mer fragment of neoantigen P27; synthetic peptide
# B5: P37 9-mer GVLRRLLCR (peptide)
# peptide: GVLRRLLCR
# notes: 9-mer fragment of neoantigen P37; synthetic peptide
# B6: P77 9-mer FFKRAAEGF (peptide)
# peptide: FFKRAAEGF
# notes: 9-mer fragment of neoantigen P77 (AR-V3); synthetic peptide
# B7: P35 9-mer NSKMALNSL (peptide)
# peptide: NSKMALNSL
# notes: 9-mer fragment of neoantigen P35; synthetic peptide
# Molecular target: T1, HLA-A*01:01 (human, biotinylated heavy chain)
# T1 construct: Conditional HLA class I complex whose UV-labile peptide is exchanged for the test peptide
# Assay: UV-induced peptide exchange, HLA class I ELISA; Pos peptide = 100%;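 further: Streptavidin-captured biotinylated HLA class I complexes detected by HRP-conjugated anti-human B2M antibody, absorbance readout of intact complex amount after exchange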
# Method: (§1) The exchange efficiency between the peptide of interest and Pos was analyzed using an HLA class I ELISA.
# (§2) The HLA class I ELISA is an enzyme immunoassay based on the detection of beta2-microglobulin (B2M) of (peptide-stabilized) HLA class I complexes. To this end streptavidin was bound onto polystyrene microtiter wells. After washing and blocking, HLA complex present in exchange reaction mixtures or ELISA controls was captured by the streptavidin on the microtiter plate via its biotinylated heavy chain. Non-bound material was removed by washing. Subsequently, horseradish peroxidase (HRP)-conjugated antibody to human B2M was added. […] In the latter case B2M was removed during the washing step. After removal of non-bound HRP conjugate by washing, a substrate solution was added to the wells. A coloured product formed in proportion to the amount of intact HLA complex present in the samples. After the reaction was terminated by the addition of a stop solution, absorbance was measured in a microtiter plate reader.
row,Binder,exchange rate with Pos peptide
1,B1,2.2%
2,B2,5.5%
3,B3,2.3%
4,B4,4.8%
5,B5,1.4%
6,B6,1.9%
7,B7,2.5%

# Molecular target: T2, HLA-A*02:01 (human, biotinylated heavy chain)
# T2 construct: Conditional HLA class I complex whose UV-labile peptide is exchanged for the test peptide
# Assay: as above
# Method: as §1, §2
row,Binder,exchange rate with Pos peptide
1,B1,11.9%
2,B2,10.4%
3,B3,8.8%
4,B4,10%
5,B5,12.5%
6,B7,12.5%

# Molecular target: T3, HLA-A*03:01 (human, biotinylated heavy chain)
# T3 construct: Conditional HLA class I complex whose UV-labile peptide is exchanged for the test peptide
# Assay: as above
# Method: as §1, §2
row,Binder,exchange rate with Pos peptide
1,B1,4.5%
2,B2,6.1%
3,B3,5.5%
4,B4,4.5%
5,B5,6.4%
6,B6,2.8%
7,B7,4.2%

# Molecular target: T4, HLA-A*24:02 (human, biotinylated heavy chain)
# T4 construct: Conditional HLA class I complex whose UV-labile peptide is exchanged for the test peptide
# Assay: as above
# Method: as §1, §2
row,Binder,exchange rate with Pos peptide
1,B1,-0.5%
2,B2,0.8%
3,B3,0.1%
4,B4,0.7%
5,B5,-0.1%
6,B6,1.7%
7,B7,0.2%

# Molecular target: T5, HLA-B*07:02 (human, biotinylated heavy chain)
# T5 construct: Conditional HLA class I complex whose UV-labile peptide is exchanged for the test peptide
# Assay: as above
# Method: as §1, §2
row,Binder,exchange rate with Pos peptide
1,B1,7.5%
2,B2,13.7%
3,B3,10.4%
4,B4,7.8%
5,B6,14.2%
6,B7,12.1%
